# Measurements reported in paper PMC10793500, “Structural insights into RNA cleavage by a novel family of bacterial RNases” (Research Square, 2023).
# B1: YicC (E. coli endoribonuclease, proposed name RNase CS) (enzyme, UniProt P23839 1-287, looked up)
# chain: MIRSMTAYARREIKGEWGSATWEMRSVNQRYLETYFRLPEQFRSLEPVVRERIRSRLTRGKVECTLRYEPDVSAQGELILNEKLAKQLVTAANWVKMQSDEGEINPVDILRWPGVMAAQEQDLDAIAAEILAALDGTLDDFIVARETEGQALKALIEQRLEGVTAEVVKVRSHMPEILQWQRERLVAKLEDAQVQLENNRLEQELVLLAQRIDVAEELDRLEAHVKETYNILKKKEAVGRRLDFMMQEFNRESNTLASKSINAEVTNSAIELKVLIEQMREQIQNIE
# notes: YicC of E. coli, the prototypical member of the YicC family of endoribonucleases; Expressed from a modified pET47b vector; also called apo YicC; source: E. coli (culture of EG1261, IPTG induced), purified (Ni-NTA, SUMO-protease cleavage, Superdex 200; for cryo-EM also Hitrap Q)
# Molecular target: the molecule itself
# Test: crystal structure; apo YicC; hanging drop vapor diffusion, 0.1M Tris pH 8.5, 0.3M lithium sulfate, 25% PEG 3350; six copies in the asymmetric unit
protein,measurement,value
B1,stoichiometry N,6
